Data published in paper PMC12230644, “A Bacteriophage‐Derived Primase‐Helicase Orchestrates Plant Organellar DNA Replication” (Physiologia Plantarum, 2025).
Where “and” joins values, the source holds several entries; their conditions need not be identical. Equal values may be shown once.

B1: AtHelicaseΔ10 (AtHelicase lacking the last 10 amino acids) (domain or fragment)
chain: ILDAEPYPILGLFSFKDFFDEIDAYYDRTHGHEYGVSTGWKNLDNLYSVVPGELTVVTGIPNSGKSEWIDAMLCNLNHSVGWKFALCSMENKVRDHARKLLEKHIKKPFFDADYGRSVQRMSVEEKDEGKKWLNDTFYPIRCEMDSLPSIDWVLERAKAAVLRYGIRGLVIDPYNELDHQRTPRQTETEYVSQMLTKIKRFSQHHSCHVWFVAHPKQLQHWDGGAPNLYDISGSAHFINKCDNGIIVHRNRDENAGPLDLVQIGVRKVRNKVAGQIGDAYLCYDRTTGSYSDSPVTPG
B2: AtTwinkle (bacteriophage‐related primase‐helicase from Arabidopsis thaliana), processed form (enzyme, UniProt B5X582 92-709, looked up)
chain: TPVDTEVEADKRVVLSRLVTLRRKLAEQGVDAENCPPGQHSGLICPTCEGGNSGEKSLSLFIAPDGSSATWNCFRGKCGLKGGVRADGGLASADPIEKVERKITVEGIELEPLCDEIQDYFAARAISRKTLERNRVMQKRIGDEIVIAFTYWQRGELVSCKYRSLTKMFFQERKTRRILYGLDDIEKTSEVIIVEGEIDKLAMEEAGFLNCVSVPDGAPAKVSSKEIPSEDKDTKYKFLWNCNDYLKKASRIVIATDGDGPGQAMAEEIARRLGKERCWRVKWPKKSEDEHFKDANEVLMSKGPHLLKEAILDAEPYPILGLFSFKDFFDEIDAYYDRTHGHEYGVSTGWKNLDNLYSVVPGELTVVTGIPNSGKSEWIDAMLCNLNHSVGWKFALCSMENKVRDHARKLLEKHIKKPFFDADYGRSVQRMSVEEKDEGKKWLNDTFYPIRCEMDSLPSIDWVLERAKAAVLRYGIRGLVIDPYNELDHQRTPRQTETEYVSQMLTKIKRFSQHHSCHVWFVAHPKQLQHWDGGAPNLYDISGSAHFINKCDNGIIVHRNRDENAGPLDLVQIGVRKVRNKVAGQIGDAYLCYDRTTGSYSDSPVTPGMPERRSPKRY
notes: codon-optimised gene; The results call this construct 'full-length'; the methods give residues 92-709; The oligomer size is told differently in text (nonamer and a larger complex) and legend (hexamer), so copies is left empty; The methods name pET19b for cloning and pCRI1b-AtTwinkle for mutagenesis; also called plant Twinkle; full‐length AtTwinkle; source: E. coli BL21(DE3) with pKJ7 chaperones, …
B3: AtHelicase (helicase domain of AtTwinkle) (domain or fragment, Arabidopsis thaliana, UniProt B5X582 402-709, looked up)
chain: ILDAEPYPILGLFSFKDFFDEIDAYYDRTHGHEYGVSTGWKNLDNLYSVVPGELTVVTGIPNSGKSEWIDAMLCNLNHSVGWKFALCSMENKVRDHARKLLEKHIKKPFFDADYGRSVQRMSVEEKDEGKKWLNDTFYPIRCEMDSLPSIDWVLERAKAAVLRYGIRGLVIDPYNELDHQRTPRQTETEYVSQMLTKIKRFSQHHSCHVWFVAHPKQLQHWDGGAPNLYDISGSAHFINKCDNGIIVHRNRDENAGPLDLVQIGVRKVRNKVAGQIGDAYLCYDRTTGSYSDSPVTPGMPERRSPKRY
notes: AtTwinkle, Arabidopsis thaliana, AT1G30680, helicase domain, residues 402-709; Modified pET28-SUMO vector; also called helicase module of AtTwinkle; wild‐type AtHelicase; source: E. coli BL21(DE3) with pKJ7 chaperones, purified (Ni‐NTA, heparin, Superdex 200)
B4: replication fork OligoJ+OligoK+OligoL (mixed)
DNA 1: AGCTATGACCATGATTAC
DNA 2: AGCTACCATGCCTGCACGAATTAAGCAATTCGTAATCATGGTCATAGCT
DNA 3: CAACTGCTCCGATGCCTTACCGTGCTTAATTCGTGCAGGCATGGTAGCT

Key:
[1] = biological target: AtPolIB (Arabidopsis thaliana organellar DNA polymerase IB) (Arabidopsis thaliana); assay: MST; fluorescently labelled AtPolIB (His‐tag labelling kit) at constant concentration, AtHelicase or AtHelicase‐Δ10 titrated; PBS with 0.05% Tween‐20; NanoTemper Monolith NT.115p; no DNA
[2] = biological target: the molecule itself; assay: SEC; Superdex 200 gel filtration column calibrated with thyroglobulin, γ‐globulin, ovalbumin and myoglobin; in the absence of metal ions and nucleotides; size of the oligomer from the apparent mass
AtPolIA = biological target: T1, AtPolIA (Arabidopsis thaliana, UniProt F4I6M1 92-1050); assay: EMSA; no AtTwinkle; EMSA on 8% polyacrylamide gel; binding buffer, pH and temperature not given in the material (helicase assays: 20 mM Bis-Tris-Propane pH 7.5, 10 mM MgCl2, 10 mM); conditions: protein: recombinant; tags: Cy5-labeled; label: OligoJ 5'-Cy2; fork, strands 1:2 (18 bp) and 2:3 (27 bp); 4 nt gap on template; 22 nt 5' ssDNA tail on strand 3
T1 sequence: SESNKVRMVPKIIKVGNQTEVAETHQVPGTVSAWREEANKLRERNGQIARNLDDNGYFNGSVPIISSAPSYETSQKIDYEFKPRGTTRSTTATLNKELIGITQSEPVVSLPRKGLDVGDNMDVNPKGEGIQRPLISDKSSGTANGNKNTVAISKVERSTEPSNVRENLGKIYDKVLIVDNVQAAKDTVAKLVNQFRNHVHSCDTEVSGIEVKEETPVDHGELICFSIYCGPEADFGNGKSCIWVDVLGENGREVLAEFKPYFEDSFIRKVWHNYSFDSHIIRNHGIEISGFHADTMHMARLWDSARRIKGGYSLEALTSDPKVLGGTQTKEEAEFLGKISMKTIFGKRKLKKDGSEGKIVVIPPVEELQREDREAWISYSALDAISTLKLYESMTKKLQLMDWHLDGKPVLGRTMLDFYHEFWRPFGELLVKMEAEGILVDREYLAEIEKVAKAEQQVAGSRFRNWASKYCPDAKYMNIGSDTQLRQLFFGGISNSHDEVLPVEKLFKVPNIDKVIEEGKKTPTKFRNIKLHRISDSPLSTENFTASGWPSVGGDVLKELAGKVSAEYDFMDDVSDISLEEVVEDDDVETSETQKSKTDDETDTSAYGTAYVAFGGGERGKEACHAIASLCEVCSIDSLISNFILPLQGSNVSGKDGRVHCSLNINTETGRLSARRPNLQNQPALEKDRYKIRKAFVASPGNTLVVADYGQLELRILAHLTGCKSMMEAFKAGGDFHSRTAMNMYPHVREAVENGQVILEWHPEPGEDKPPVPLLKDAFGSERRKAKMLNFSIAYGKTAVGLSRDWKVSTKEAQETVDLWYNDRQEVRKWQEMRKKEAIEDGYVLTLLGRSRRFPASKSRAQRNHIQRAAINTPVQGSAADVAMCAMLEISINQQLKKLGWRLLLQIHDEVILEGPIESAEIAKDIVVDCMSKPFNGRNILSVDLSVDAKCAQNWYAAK

AtTwinkle = biological target: T2, AtTwinkle (Arabidopsis thaliana, UniProt B5X582 92-709); assay: EMSA; no polymerase; EMSA on 8% polyacrylamide gel; binding buffer, pH and temperature not given in the material (helicase assays: 20 mM Bis-Tris-Propane pH 7.5, 10 mM MgCl2, 10 mM); conditions: protein: recombinant; tags: His tag (pET19b; mutagenesis section names pCRI1b-AtTwinkle); chain copies: 6; label: OligoJ 5'-Cy2; fork, strands 1:2 (18 bp) and 2:3 (27 bp); 4 nt gap on template; 22 nt 5' ssDNA tail on strand 3
T2 sequence: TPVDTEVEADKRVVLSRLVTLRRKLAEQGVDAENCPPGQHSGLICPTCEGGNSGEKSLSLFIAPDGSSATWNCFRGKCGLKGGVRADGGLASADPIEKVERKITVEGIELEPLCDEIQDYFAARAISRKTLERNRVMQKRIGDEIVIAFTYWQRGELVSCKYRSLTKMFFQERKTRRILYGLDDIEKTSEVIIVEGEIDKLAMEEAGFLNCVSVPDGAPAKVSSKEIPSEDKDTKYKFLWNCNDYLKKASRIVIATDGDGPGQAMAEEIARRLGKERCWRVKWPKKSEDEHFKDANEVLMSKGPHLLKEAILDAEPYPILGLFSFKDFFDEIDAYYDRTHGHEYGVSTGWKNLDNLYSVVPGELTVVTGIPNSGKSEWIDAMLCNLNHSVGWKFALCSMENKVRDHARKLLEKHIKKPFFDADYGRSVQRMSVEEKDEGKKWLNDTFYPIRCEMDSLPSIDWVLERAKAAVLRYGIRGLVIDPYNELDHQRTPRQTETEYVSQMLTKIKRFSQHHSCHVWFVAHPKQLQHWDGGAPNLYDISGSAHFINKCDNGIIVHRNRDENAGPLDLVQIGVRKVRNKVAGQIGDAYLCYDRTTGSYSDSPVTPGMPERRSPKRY

AtTwinkle;AtPolIA = AtTwinkle;AtPolIA (Arabidopsis thaliana;Arabidopsis …, UniProt B5X582;F4I6M1 92-709;92-1050, |); assay: EMSA; constant AtPolIA, high AtTwinkle; Cy2/Cy5 (orange) band at gel top, AtPolIA-DNA band disappears; EMSA on 8% polyacrylamide gel; binding buffer, pH and temperature not given in the material (helicase assays: 20 mM Bis-Tris-Propane pH 7.5, 10 mM MgCl2, 10 mM); conditions: protein: recombinant;recombinant; tags: His tag (pET19b; mutagenesis section names pCRI1b-AtTwinkle);Cy5-labeled; label: OligoJ 5'-Cy2; fork, strands 1:2 (18 bp) and 2:3 (27 bp); 4 nt gap on template; 22 nt 5' ssDNA tail on strand 3

Row | Binder | Kd [1] [nM] | stoichiometry N [2] | binding result (AtPolIA) | binding result (AtTwinkle) | binding result (AtTwinkle;AtPolIA)
1 | B1 | 3640 | – | – | – | –
2 | B2 | – | 9 and 6 | – | – | –
3 | B3 | 210 | 6 | – | – | –
4 | B4 | – | – | binds | binds | binds
